Substitutions are numbered along the chain they refer to.
B1: Ab4994 IgG4_Pro (antibody, V domains shown)
VH: QVQLVESGGGLVQPGGSLRLSCAASGFTFSSYAMNWVRQAPGKGLEWVSAISYSGHLTGYADSVKGRFTISRDNSKNTLYLQMNSLRAEDTAVYYCARIQNDPMDVWGQGTLVTVSS
VL: DIELTQPPSVSVAPGQTARISCSGDNLGKKYVQWYQQKPGQAPVLVIYDDSNRPSGIPERFSGSNSGNTATLTISGTQAEDEADYYCSSWDVGSDGWVFGGGTKLTVLG
B2: Ab4999 IgG4_Pro (antibody, V domains shown)
VH: B1 VH with A50T, G55S, H56S, L57A, G59S
VL: DIELTQPPSVSVAPGQTARISCSGDNLGKKYVQWYQQKPGQAPVLVIYDDSNRPSGIPERFSGSNSGNTATLTISGTQAEDEADYYCQTWDYSSIRDETNVFGGGTKLTVLG
B3: Ab5150 IgG4_Pro (light chain of Ab4999 combined with heavy chain of Ab5003) (antibody, V domains shown)
VH: B1 VH with S54K
VL: B2 VL
B4: Ab5005 IgG4_Pro (antibody, V domains shown)
VH: B1 VH with A50T, G55S, H56S, L57A, G59S
VL: DIELTQPPSVSVAPGQTARISCSGDNLGKKYVQWYQQKPGQAPVLVIYDDSNRPSGIPERFSGSNSGNTATLTISGTQAEDEADYYCQSWALVGSSESNVFGGGTKLTVLG
B5: Ab5151 IgG4_Pro (light chain of Ab4999 combined with heavy chain of Ab5007) (antibody, V domains shown)
VH: B1 VH with Y53F
VL: B2 VL
B6: Ab4997 IgG4_Pro (antibody, V domains shown)
VH: B1 VH with S54N, H56K, T58K
VL: B1 VL
B7: Ab5149 IgG4_Pro (light chain of Ab4999 combined with heavy chain of Ab4997) (antibody, V domains shown)
VH: B1 VH with S54N, H56K, T58K
VL: B2 VL
B8: Ab5003 IgG4_Pro (antibody, V domains shown)
VH: B1 VH with S54K
VL: B1 VL
B9: Ab5007 IgG4_Pro (antibody, V domains shown)
VH: B1 VH with Y53F
VL: B1 VL
B10: Ab4996 IgG4_Pro (antibody, V domains shown)
VH: QVQLVESGGGLVQPGGSLRLSCAASGFTFSNHAMHWVRQAPGKGLEWVSAISHPGKFTYYADSVKGRFTISRDNSKNTLYLQMNSLRAEDTAVYYCARHGDGMDYFDFWGQGTLVTVSS
VL: DIELTQPPSVSVAPGQTARISCSGDNIGTKYVYWYQQKPGQAPVLVIYDDNNRPSGIPERFSGSNSGNTATLTISGTQAEDEADYYCQSYDSQTMVFGGGTKLTVLG

target: Labeled peptide representing the N-terminus of PAR-2 (FRET peptide); experiment: cell-based or functional assay

FRET Peptide Cleavage IC50, < 30 nM:
B1
B2
B3
B4
B5
B6
B7
B8
B9
B10

— US20110311553A1 (Boehringer Ingelheim, published 2011)
